Data published in PMC12326332, “Tuning ubiquitin transfer by RING E3 ubiquitin ligases through the linchpin residue” (Life Science Alliance, 2025).

Molecular target: T1, mature human SMAC^56-C (human, UniProt Q9NR28 56-239)
T1 construct: SMAC (DIABLO), mature form starting from Ala56 to the C terminus; expressed as a SUMO fusion in pRSF-DUET1 so that the N terminus starts from Ala56; also called SMAC^56-C,Strep-II; mature SMAC; source: E. coli BL21 (DE3) Rosetta 2 pLysS, purified (His-TRAP, Superdex 75); not shown: SUMO, N-terminal, cleaved
T1 sequence (looked up): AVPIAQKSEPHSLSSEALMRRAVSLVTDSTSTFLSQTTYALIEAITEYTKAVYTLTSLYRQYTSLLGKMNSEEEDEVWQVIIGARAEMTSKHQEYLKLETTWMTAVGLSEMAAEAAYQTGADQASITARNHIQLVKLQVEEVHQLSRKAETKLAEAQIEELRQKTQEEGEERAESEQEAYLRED
Experiment: SEC; gel filtration elution profiles of XIAP-RNF38^WT, SMAC^56-C and the E3/SMAC mixture
Conditions: both partners purified

B1: XIAP^145-430-RNF38^389-C (other, UniProt P98170 145-430, looked up)
chain: QVVDISDTIYPRNPAMYSEEARLKSFQNWPDYAHLTPRELASAGLYYTGIGDQVQCFCCGGKLKNWEPCDRAWSEHRRHFPNCFFVLGRNLNIRSESDAVSSDRNFPNSTNLPRNPSMADYEARIFTFGTWIYSVNKEQLARAGFYALGEGDKVKCFHCGGGLTDWKPSEDPWEQHAKWYPGCKYLLEQKGQEYINNIHLTHSLEECLVRTTEKTPSLTRRIDDTIFQNPMVQEAIRMGFSFKDIKKIMEEKIQISGSNYKSLEVLVADLVNAQKDSMQDESSQTSTKADIEQLPSYRFNPNNHQSEQTLCVVCMCDFESRQLLRVLPCNHEFHAKCVDKWLKANRTCPICRADASEVHRDSE
notes: XIAP (BIRC4) residues 145-430 with the substrate-recruiting BIR2 and BIR3 domains; RNF38 RING domain, residue 389 to the C terminus; no linker between the two parts is told; also called XIAP-RNF38; XIAP-RNF38^WT; source: E. coli BL21 (DE3) Rosetta 2 pLysS, purified
Does B1 bind?
Result: binds
